Experiment: yeast display, Sf9 membrane polyspecificity reagent, FACS + sequencing; frameworks hold sequencing errors
Procedure, shortened: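 Polyreactivity labels are assigned by the sorting gate from which each nanobody was recovered. The gates were low and high (top ~1%), set on anti-HA fluorescence for expression and streptavidin fluorescence for reagent binding. Before sorting, galactose-induced (36–48 hours) yeast display cells were stained for 1 hour at 4 °C with 10% biotinylated, detergent-solubilized Sf9 membrane reagent.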

| Sequence | polyreactivity (PSR sort gate) |
| --- | --- |
| QVQLVESGGGLVQAGGSLRLSCAASGSTSTYYAMGWYRQAPGKERELVAAITLGAGRKYADSVKGRFTISRDNAKNTVYLQMNSLKPEDTAVYYCAADSHIDHGKWAYDYWGQGTQVTVSS | low polyreactivity |
| QVQLHESGGGLVQAGGGLRLTCAASGSISSTGFMGWYRQAPCKELEPVAAIAPGPTTYYADSGKGRFTISRDNAKNTVYLQMTSPRPEDTAVNYGAVFTDNRVAFLYWGQGTQVTVSS | low polyreactivity |
| QVQLVESGGGIVQAGGSLRLSCAATGRTFGYNAMGWYRQAPGKERELVAAIRTIGDSTYYADSVKGRFTISRDNAKNTVYLQMNSLKPEDTAVYYCAARKLRSRYDYWGQGTQVTVSS | high polyreactivity |
| QVQLVESGGGLVQAGGSLRLSCAASGSTFSGYAMGWYRQAPGKERELVATISGGGSTYYADSVKGRFTISRDNAKNTVYLQMNSLKPEDTAVFYCNAQGYGIFTSSLDYWGQGTQVTVSS | low polyreactivity |
| QVQLVESGGGLVQAGGSLRLSCAASGRIFYYYAMGWYRQAPGKERELVAAITRGGGTYYADSVKGRFTISRDNAKNTVYLQMNSLKPEDTAVYYCAKRGPPESHHPYRYRFDYWGQGTQVTVSS | low polyreactivity |
| QVQIVESGGGLVQAGGSLRLSCAASVFTFGENAMGWYRQAPGKERELVAAITSGDGTSYADSVKGRFTISRDNAKYTVYLQMNSLKPEDTSVYYCAADVGDELYYSTYDYWGQGTQVTVSS | low polyreactivity |
| QVQLVESGGGLVQAGGSLRLSCAASGSTFNGYAMGWYRQAPGKERELVAAITSSGSRTYYADSVKGRFTISRDNAKNTVYLQMNSLKPVDTAVYYCNAGKLARTYFRSSSVSPGDYWGQGTQVTVSS | high polyreactivity |
| QVQLVESGRGLVQAGGSLRLSCAASGRTFPYYAMGWYRQAPGKERELVAAISSSGGSTYYADSVKGRFTISRDNAKNTVYLQMNSLKPEDTAVYYCNRYSRLYLTDDDYWGQGTLVTVSS | high polyreactivity |
| QVQLVESGGGLVQAGASLRLSCAASGRTFYNYAMGWYRQARGKEREFVASMTTSGGSTYYADSVKGRFTISRDNAKNTVYLQMNSLKPEDTAVYYCARRAYRSWTGNSYEYYYWGQGTQVTVSS | high polyreactivity |
| QVQLVESGGGLVQAGGSLRLSCAASGRIFPVNAMGCYRQAPGKEREFVSAIRGTGTSTYYADSVKGRFTISRDNAKNTVYLQMNSLKPEDTAVYYCAARGYVQYQGQNVNTFDYWGQGTQVTVSS | low polyreactivity |
| QVQLVESGGGLVQAGGSLRLSCAASGITFKYYTMGWYRPAPGKERELVAAITSRAGRTYADSVKGRFTISRDNAKNTVYLQMNSLKPEDTAVYYCDKKWRGNTYLYDYWGQGTQVTVSS | high polyreactivity |
| QVQLVESGGRLVQAGGRLRLSCAASGFTFGSYAMGWYRQAPGKERELVPSISSAGRTYYADSVKGRFTISRDNAKNTVYLQMNSLKPEDTAVYYCNTDSRVTIYDYDYWGQGTQVTVSS | low polyreactivity |
| QVQLVESGGGLVQAGGSLRLSCAASGFTFGYNDMGWYRQAPGKERELVAGIRSGDDTNYADSVKGRFTISRDNAKNTVYLQMYSLKPEDTAVYYCAADRTTYTYYLPYDYWGQGTQVTVSS | low polyreactivity |
| QVQLVESGGGLVQAGGSLRLSCAASGFIFPWYAMGGYRQAPRKERELVAAITSGGTTYYADSVKGRFTISRDNAKNTVYLQMNSLKPEDTAVYYCAAQYYFYPHEFDYWGQGTQVTVSS | low polyreactivity |
| QVQLVESGGGLVQAGGSLRLSCAASGGMGWYRQAPGKERELVATISSVGSTNYADSVKGRFTISRDNAKNTVYLQMNSLKPEDTAVYYCNANGVQYFLYGYWGQGTQVTVSS | low polyreactivity |
| QVQLVESGGGLVQAGGSLRLSCAASGRIFLTYAMGWYRQAPGKERELVAAITDNGGDTYYADSVKGRFTISRDNAKNTVYLQMNSLKPEDTAVYYCAKTTLSVAGLDFDYWGQGTQVTVSS | low polyreactivity |
| QVQLVESGGGLVQAGGSLPLSCAASGRIFNSNAMGWYRQAPGKERELVAAIPISGSTNYADSVKGRFTISRDNAKNTVYFQMNSLKPEDTAVYYCAAQRTSHGRGVNGYVKYGYWGQGTIVTVSS | high polyreactivity |
| QVQLVDSGGGLVQAGGSLRLSCAASGRIFYRYALGWYRQAPGKERELVAAITRGGRTNYADSVKGRFTISRDNAQNTVYLQMNSLKPEDTAVYYCRPLWYGFDYWGQGTQVTVSS | high polyreactivity |
| QVQLVESGGGLVQAGGSLRLSCAASGFIFHYYAMGRYRQAPGKERELVAAISWNGGSTNYSDSVKGRFTISRDNAKNTVYLQMNSLKPEDTAVYYCATTDPYYDVDYWGQGTQVTVSS | low polyreactivity |
| QVQLVESGGGLVQAGGSLRLSCAASGLTFSDYAMGWYRQATGKEREFVAAITRNGGSTRYADSVKGRFTISRDNAKNTVYLQMNSLKPEDTAVYYCAADWSYEYGYWGQGTQVTVSS | low polyreactivity |
| QVQLVASAAGLVQAVGSLRLSCAASASTIGYYAMGWSRQAPGKERELVAAISWSGGSTYYADSVKGRFTISRDNAKNTVYLQMNSLKPEDTAVYFCAADTYPDYYLVEYYYWGQGTQVTVSS | low polyreactivity |
| QVQLVESGGGLVQAGGSLRLSSAASGRILPVNTMGWYRQAPGKERELVAVITRSGGRTYYADSVKGRFTISRDNAKNTVYLQMNSLKPEDTAVYYCAADVGFRWYRYTAGPLEYDYWGQGTQVTVSS | high polyreactivity |

| Sequence | polyreactivity (PSR sort gate) |
| --- | --- |
| QVQLLESGGGLVQAGGSLRLSCAASGRIFKFNAMGWYRQAPGKERDLVAAISKRGGSTYYADSVKGRFTISRDNAKNTVYLQMISLKPEDTAVYYCAADRSPYGGDYDYWGQGTQVTVSS | high polyreactivity |
| QVQLVESGGGLVQSGGSLRLTCAASGSILWYNGMGWYSQAPGKERELVAAITSGGSTNYADSVKGRFTISRDNAKNTFYLHMNSLKPEDTEVYYCKARPYWFGSYGYWGQGTKVTVSS | low polyreactivity |
| QVQLVESGVGLVQAGGSLRLICAASGSTFYYYAMGWYRQAPGKEREFVAAISSSTGSTYYADSVKGRFTISRDNAKNTVYLQLNSLKPEDTAVYYCNALTWYTSQDYDYWGQGTQVTVSS | high polyreactivity |
| QVQLVESGGGLVQAGGTLRLSCAASGFTFGYYAMGWYRPAPGKERELVAAISSRGGTTYYADSVKGRFTISRDNAKNTVYLQMNSLKPEDTAVYYCAKDSFRNIYNYWGQGTQVTVSS | high polyreactivity |
| QVQLVESGGGLVQAGGSLRLSCAASGSIFRSYAMGWYRQAPGKERELVAAITSSSGSTYYADSVKGRFTISRDNAKNTVYLQMNSLKPEDTAVYYCNAPYWKSRFRAYYHWGQGTQVTVSS | high polyreactivity |
| QVQLVESGGGLVQAGGSLRLSCAASGSIFGVNMGWYRQAPGKERELVASITSGGSTNYADSVKGRFTISRDNAKNTVYLQMNSLKPEDTAVYYCATDRYVWGQGTQVTVSS | low polyreactivity |
| QVQLLESGGGLVQAGGSLRLSCAASGLTFNTYAMGWYIQAPGKERELVAAISRGGGSTYYADSVKGRFTISRDNAKNTVYLQMNSLKPEDTAVYYCNAEKRASYLLYDYWGQGTQVTVSS | high polyreactivity |
| QVQLVESGGGLVQAGGSLRLSCAASGSTFEYNAMGWYRQAPGKERELVASSTNYAEAVKGRFTISRDNAKNTVYLQMNCLKPVDTAVYYCAREQGVNRNHDYWGQGTQVTVSS | low polyreactivity |
| QVQLVESGGGLVQAGGSLRLSCAASGRTFEYYAMGWYRPAPGKERELVAAITYSGDSTYYADSVKGRFTISRDNAKNTVYLQMNSLKPEDTAVYYCAADWSSLKDDYWGQGTQVTVSS | low polyreactivity |
| QVQLVESGGGLVQAGGSLRLSCAASGSIFGSNAMGWYRRAPGKERELVAVINASGASTYYADSVKGRFTISRDNAKNTVYLQKNSLKPEDTAVYYCAKDPFPFPGGDYWGQGTQVTVSS | low polyreactivity |
| QVQLVESGGGLVQAGGSLRLSCAASGSTFWYYAMGWYRQAPGKERELVASITYSGGSTYYADSVKGRFTISRDNAKNTVSLQMNSLKPEDTAVYYCAAEGYYSNYHYWGQGTQVTVSS | low polyreactivity |
| QVQLVESGGGLVQAGGSLRLSSAASGRTFRYYTMGWYRQAPGKEREFVAAISSTGGTYYADSVKGRFTISRDNAKNNVYLQMNSLKPEVTAVYYCAATFIQVVVNVELYDYDYWGQGTQVTVSS | low polyreactivity |
| QVQLVESGGGLVQAGGSLRLSCAASGFTFPKYAMGWYRQSPGKERELVAGITNGGSTFYADSVKGRFTISRDNAKNTVYLQMNSLKPEDPAVYYCAASGRLSLGGRFYDLGLSYDYWGQGTQVTVSS | low polyreactivity |
| QVQLVESGGGLVQAGGSLRLSCAASGSTSYGYAMGWYRQAPGKERELVAAISYSGSSTYYADSVKGRFTISRDNAKNTVYLQMNSLKPEDTAVYYCNAKVYPGVGPKHRYDYWGQGTQVTVSS | low polyreactivity |
| QVQLVESGGGLVQAGGSLRLSCAASGITFDQNAMGWSRQEPGKESEFVAAISVSGARTYYADSVKGRFTISRDNAKNTVYLQMNSLKPEDTAVYYCAAYGGTRYYYSYYYWGQGTQVTVSS | high polyreactivity |
| QVQLVESGGGLVQAGGSLRLSCAASGIIFQRNAMGWYRQAPGKERELVAAISASGGSTNYADSVKGRFTISRDNAKNTVSLQMNSLKPEDTAVYYCAAEDDGDFDYWGQGTQVTVSS | low polyreactivity |
| QVQLVESGGGLVQAGGSLRLSCAASRSTFYIYDMGWYRQAPGKESELVARISGSGVSTYYADSVKGRFTISRDNAKNTVYLQMNSLKPEDTAVYYSAADGISHWLYRYDYWGQGTQVTVSS | low polyreactivity |
| QVQLVESGGGLVQAGGSLRLSCAASGLIFSGYAMGRYRQAPGKERELVAAITWSGGSTYYADSVKGRFTISRDNAKNTVYLQMNSLKPEDTAVYYCNAKFFQISRYGYWGQGTQVTVSS | high polyreactivity |
| QVQLVESGGGLVQAGGSLRLSCAASGIIFLKYAMGWYRQAPGKERELVAAISRSGGGTYYADSVKGRFTISRDNAKNTVYLQMNSLKLEDTAVYYCAARGVDRQGYRFYYWGQGTQVTVSS | high polyreactivity |
| QVQLVESGGGLVQAGGSLRLSCAASGFTFTFNAMGWYRQEPGKEREFVAAITWSGGSTYYADSVKGRFTISRDNAKNTVYLQMNSLKPEDTAVYYCAARLYRSFTFNYWGQGTQVTVSS | high polyreactivity |
| QVQLVESGGGLVQAGGSLRLSCAASGRTFFPYAMGWYRQAPGKERELVARISRTTGRTYYADSVKGRFTISRDNAKNTVFLQMNSLKPEDTAVYYCNAEGFRASGGYVRFEYWGQGTQVTVSS | high polyreactivity |
